Measured values taken from the nanobody polyreactivity screen of Harvey et al. (2022).

Assay: yeast display, Sf9 membrane polyspecificity reagent, FACS + sequencing; frameworks hold sequencing errors
Summary of the method: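 A synthetic nanobody library was expressed on Saccharomyces cerevisiae BJ5465 by galactose induction for 36–48 hours. The library was stained for 1 hour at 4 °C with 10% biotinylated, detergent-solubilized Sf9 membrane reagent and enriched with streptavidin microbeads before FACS. Low and high (top ~1%) gates were set on anti-HA fluorescence for expression and streptavidin fluorescence for reagent binding, and each polyreactivity label reflects the gate of origin.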

Sequence	polyreactivity (PSR sort gate)
QVQLVESGGGLVQAGGSLRLSCAASGSTFTVNGMGWYRQAPGKERELVASITWSGGSTYYADSVKGRFTISRDNAKNTVYLQLNSLKPEDTAVYYCNAVDTRVPSIRFDYWGQRTQVTVSS	low polyreactivity
QVQLVESGGGLVQAGGSLRLSCAASGSTFSKNGMGWYRQAPGKERELVAAITVNGGSTSYADSVKGRFTISRDNAKNTVYLQMNSLKPEDTAVYYCARRRYSKYYYWGQGTQVTVSS	high polyreactivity
QVQLVESGGGLVQAGGSLRLSCAASGLNFYDNVMGWSRPAPGKEREFVAAITSIGGSTYYADSVKGRFTISRDNAMNTVYLQMISLKPEDTAVYYCIGKSKYYSPNYDYWGQGTQVTVSS	low polyreactivity
QVQLVDSGGGLVQAGGSLRLSCAASGSIFKYYAMGWSRQAPGKERELVAAISWSGDSTYYADSVKGRFTISRDNAKNTVYLQMNSLKPEDTAVYYCAAVYPYQVPDYDYWGQGSQVTVSS	low polyreactivity
QVQLVESRGGLVQAGGSLRLSCAASGFIFSRYGMGWYRQAPGKERELVAAISRSGGSTYYADSVKGRFTISRDNAKNTVYVQMNSLKPEDTAVYYCATAYSWRNADWFAYSYDYWGQGTQVTVSS	low polyreactivity
QVQLLESGGGLVQAGGSLRLSCAASGRTFYRTAKGWYRQAPGKERELVASITRSGNTNYADSVKGRFTISRDNAKNTVYLQMNSLKPEDTAVYYCAARPWLRNKYDYWGQGTQVTVSS	high polyreactivity
QVQLVESAGGLVQAGGSLRLICAASVFTFYYYTMGWYRPAPGKERELVAGISGTGGSTYYADSVKGRFTISRDNAKNTVYLQMNSLKPEDTAVYYCAAGPWYWGQGTQVTVSS	low polyreactivity
QVQLVESGGGLVQAGGSLRLSCAASGIIFSYYAMGWYRQAPGKERELVAAITWSVGSTDYADSVKGRFTISRDNAKNTVYLQMNSLKPEDTAVYYCAATITTLDWDDRYDYWGQGTQETVSS	low polyreactivity
QVQLVDSGGGLVQAGGSLRLSCAASGTIILVYAMGWYRQAPGKERELVARITNGTGSTYYADSVKGRFTISRDNAKNTVYLQMNSLKPEDTAVYYCATGQGSSYRSGPRWYPNAFGYWGQVTQVTVSS	high polyreactivity
QVQLVESGGGLVQAGGSLRLSFAASGLIFSYYAMVWYRQAPGKERELVAAISSSGGSTYYADSVKGRFTISRDYAKNTVYLQMNSLKPEDTAVYYCARKLTRRFYQYDYWGQGTQVTVSS	high polyreactivity
QVQLVESGGGLVQAGGSLRLSCAASGRTFKYYAMGWYRQAPGKERELVAAISWNGGSTYYADSVKGRFTISRDNAKNTVYLQMNSLKPEDTAVYYCAARYYAAGIGSRYDYWGQGTQVTVSS	high polyreactivity
QVQLRESGGGLVQAGGSLLSCAASATISYYREMGWYRQAPGNERELVAGIGVGTITYYADSVKGRFTISRDNAKNTVYLQMNSLKPEDTAVYYCAAHIEGNDSHAYWGQGTQVTVSS	low polyreactivity
QVQLVESGGGLVQAGGSLRLSCAASGFTFYYYAMGWYRQAPGKERELVAGISKSGGITYYADSVKGRFTISLDNAKNTVYLQMNSLKPEDTAVYYCAAAEWYQFFIYRYTYEYWGQGTQVTVSS	low polyreactivity
QVQLVESGGGLVQAGGSLRLSCAASGSTFAVYAMGWNRQAPGKERELVASITRGGSTYYADSVKGRFTISRDNAKYTVYLQMNSLKPEDTAVYYCADSITHYWYGYWGQGTQVTVSS	high polyreactivity
QVQLVESGGGLVQAGGSLRLSCAASGFIFAGYAMGWYRQAPGKERELVAAISWDGGSTYYADSVKGRFTISRDNAKNTVYLQMNSLKPEDTAVYYCARARYGKYGYWGQATQVTVSS	low polyreactivity
QVQLVESGGGLVQAGGSLRLSCAASGRIFSVNAMGWYRQAPGNERELVAAMTSGDSTNYADSVKGRFTISRDNAKNTVYLQMNSLKPEDNAVYYCNARGSQELWRRKWYHTEYDYWGQGTQVTVSS	low polyreactivity
QVQLEESGGGLFQAGGSLRLSCAASGSTFYAYAMGWYRQAPGKERELVAAISSDGTNYADSVKGRFTISRDNAKNTVYLQMNSLKPEDTAVYYCAADMLLYSSQDNDYWGQGTLVTVSS	low polyreactivity
